Experiment [1] has as its target T1, CD3 on Jurkat wild-type cells (UniProt P07766 23-207; P04234 22-171; P09693 23-182).
T1 construct: whole, on cells; also called Jurkat WT
Description: flow cytometry on Jurkat WT cells, antibody at 1 ug/ml.

Experiment [2] concerns the target T1, CD3 on Jurkat wild-type cells. Description: flow cytometry on Jurkat WT cells, antibody at 10 ug/ml. Background: Flow cytometry measures light scatter and fluorescence of single cells or particles in a stream.
Experiment [3] addresses T2, CD33 on KILR-HL60 cells (UniProt P20138 18-364, limits assumed).
T2 construct: whole, on cells; Target of the gemtuzumab arm; also called CD33 expressing cells
As to the kind of experiment: flow cytometry on KILR-HL60 (CD33 expressing) cells, antibody at 1 ug/ml.

Experiment [4] deals with T2, CD33 on KILR-HL60 cells. Description: flow cytometry on KILR-HL60 (CD33 expressing) cells, antibody at 10 ug/ml.

T2 sequence (P20138 18-364 limits assumed): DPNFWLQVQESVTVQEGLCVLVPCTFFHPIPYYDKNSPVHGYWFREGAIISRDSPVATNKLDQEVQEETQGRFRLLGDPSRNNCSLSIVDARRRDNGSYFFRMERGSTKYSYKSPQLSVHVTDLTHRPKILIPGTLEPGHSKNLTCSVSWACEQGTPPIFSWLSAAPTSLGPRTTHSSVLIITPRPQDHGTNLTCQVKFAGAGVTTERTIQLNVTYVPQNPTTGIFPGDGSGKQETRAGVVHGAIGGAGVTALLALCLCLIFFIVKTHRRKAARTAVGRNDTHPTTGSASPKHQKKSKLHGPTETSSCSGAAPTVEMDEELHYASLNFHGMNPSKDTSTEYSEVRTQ
T1 sequence (P07766 23-207, chain 1 of 3): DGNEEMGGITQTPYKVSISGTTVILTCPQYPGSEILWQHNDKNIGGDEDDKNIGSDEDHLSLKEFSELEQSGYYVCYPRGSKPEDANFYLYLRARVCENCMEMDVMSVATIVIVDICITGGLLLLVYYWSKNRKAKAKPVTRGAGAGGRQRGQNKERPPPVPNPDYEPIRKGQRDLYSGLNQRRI
T1 sequence (P04234 22-171, chain 2 of 3): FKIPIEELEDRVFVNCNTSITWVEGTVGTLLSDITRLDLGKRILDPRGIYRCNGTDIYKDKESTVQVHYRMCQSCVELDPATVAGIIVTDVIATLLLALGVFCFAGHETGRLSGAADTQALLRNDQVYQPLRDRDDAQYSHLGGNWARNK
T1 sequence (P09693 23-182, chain 3 of 3): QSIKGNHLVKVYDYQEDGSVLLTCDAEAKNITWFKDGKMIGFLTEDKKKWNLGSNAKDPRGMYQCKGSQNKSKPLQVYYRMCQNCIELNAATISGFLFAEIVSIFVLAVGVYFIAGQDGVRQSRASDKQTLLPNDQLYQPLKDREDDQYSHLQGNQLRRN

B1: CD3 × CD33-BspAb51 (bispecific antibody)
chain 1: not shown
chain 2: EVQLVQSGAEVKKPGSSVKVSCKASGYTITDSNIHWVRQAPGQSLEWIGYIYPYNGGTDYNQKFKNRATLTVDNPTNTAYMELSSLRSEDTAFYYCVNGNPWLAYWGQGTLVTVSSASTKGPSVFPLAPSSKSTSGGTAALGCLVKDYFPEPVTVSWNSGALTSGVHTFPAVLQSSGLYSLSSVVTVPSSSLGTQTYICNVNHKPSNTKVDKRVEPKSCDKTHTCPPCPAPEFEGGPSVFLFPPKPKDTLMISRTPEVTCVVVDVSHEDPEVKFNWYVDGVEVHNAKTKPREEQYNSTYRVVSVLTVLHQDWLNGKEYKCKVSNKALPASIEKTISKAKGQPREPQVCTLPPSREEMTKNQVSLSCAVKGFYPSDIAVEWESNGQPENNYKTTPPVLDSDGSFFLVSKLTVDKSRWQQGNVFSCSVMHEALHNRFTQKSLSLSPGK
chain 3: DIQLTQSPSTLSASVGDRVTITCRASESLDNYGIRFLTWFQQKPGKAPKLLMYAASNQGSGVPSRFSGSGSGTEFTLTISSLQPDDFATYYCQQTKEVPWSFGQGTKVEVKRTVAAPSVFIFPPSDEQLKSGTASVVCLLNNFYPREAKVQWKVDNALQSGNSQESVTEQDSKDSTYSLSSTLTLSKADYEKHKVYACEVTHQGLSSPVTKSFNRGEC
Consider B1, for which the flow cytometry signal came out at 12000 in experiment [1], 24300 in experiment [2], 509000 with CD33 on KILR-HL60 cells [3] and 691000 with CD33 on KILR-HL60 cells [4].

B2: CD3 × CD33-BspAb48 (bispecific antibody)
chain 1: QVTLKESGPGILQPSQTLSLTCSFSGFSLSTFGMGVGWIRQPSGKCLEWLAHIWWDDDKYYNPALKSRLTISKDTSKNQVFLKIANVDTADTATYYCARLGYYPYWFFDVWGTGTTVTVSSGGGGSGGGGSGGGGSGGGGSNFMLTQPHSVSESPGKTVTIACTRSSGSIASNYVQWYQQRPGSSPTTVIYEDNQRPSGVPDRFSGSIDSSSNSASLTISGLKTEDEADYYCQSYDSSNQVFGCGTKLTVLDKTHTCPPCPAPEFEGGPSVFLFPPKPKDTLMISRTPEVTCVVVDVSHEDPEVKFNWYVDGVEVHNAKTKPREEQYNSTYRVVSVLTVLHQDWLNGKEYKCKVSNKALPASIEKTISKAKGQPREPQVYTLPPCREEMTKNQVSLWCLVKGFYPSDIAVEWESNGQPENNYKTTPPVLDSDGSFFLYSKLTVDKSRWQQGNVFSCSVMHEALHNHYTQKSLSLSPGK
chain 2: EVQLVQSGAEVKKPGSSVKVSCKASGYTITDSNIHWVRQAPGQSLEWIGYIYPYNGGTDYNQKFKNRATLTVDNPTNTAYMELSSLRSEDTAFYYCVNGNPWLAYWGQGTLVTVSSASTKGPSVFPLAPSSKSTSGGTAALGCLVKDYFPEPVTVSWNSGALTSGVHTFPAVLQSSGLYSLSSVVTVPSSSLGTQTYICNVNHKPSNTKVDKRVEPKSCDKTHTCPPCPAPEFEGGPSVFLFPPKPKDTLMISRTPEVTCVVVDVSHEDPEVKFNWYVDGVEVHNAKTKPREEQYNSTYRVVSVLTVLHQDWLNGKEYKCKVSNKALPASIEKTISKAKGQPREPQVCTLPPSREEMTKNQVSLSCAVKGFYPSDIAVEWESNGQPENNYKTTPPVLDSDGSFFLVSKLTVDKSRWQQGNVFSCSVMHEALHNRFTQKSLSLSPGK
chain 3: DIQLTQSPSTLSASVGDRVTITCRASESLDNYGIRFLTWFQQKPGKAPKLLMYAASNQGSGVPSRFSGSGSGTEFTLTISSLQPDDFATYYCQQTKEVPWSFGQGTKVEVKRTVAAPSVFIFPPSDEQLKSGTASVVCLLNNFYPREAKVQWKVDNALQSGNSQESVTEQDSKDSTYSLSSTLTLSKADYEKHKVYACEVTHQGLSSPVTKSFNRGEC
On to B2, for which the flow cytometry signal in experiment [1] was 4140; in experiment [2], 10800; in the experiment with CD33 on KILR-HL60 cells [3], 566000; with CD33 on KILR-HL60 cells [4] it was 483000.

B3: CD3 × CD33-BspAb61 (bispecific antibody)
scFv-Fc: NFMLTQPHSVSESPGKTVTISCTRSSGSIASNYVQWYQQRPGSSPTTVIYEDNQRPSGVPDRFSGSIDSSSNSASLTISGLKTEDEADYYCQSFDNSNRVFGCGTKLTVLGGGGSGGGGSGGGGSGGGGSEVQLVESGGGLVKPGGSLRLSCAASGFTFSRYSMNWVRQAPGKCLKWVSSISSSGSYKYYADSVKGRFTISRDNAKNSLYLQMNSLRAEDTAVYYCAREPPTLGMDYWGQGTLVTVSSGGGGSDKTHTCPPCPAPEFEGGPSVFLFPPKPKDTLMISRTPEVTCVVVDVSHEDPEVKFNWYVDGVEVHNAKTKPREEQYNSTYRVVSVLTVLHQDWLNGKEYKCKVSNKALPASIEKTISKAKGQPREPQVYTLPPCREEMTKNQVSLWCLVKGFYPSDIAVEWESNGQPENNYKTTPPVLDSDGSFFLYSKLTVDKSRWQQGNVFSCSVMHEALHNHYTQKSLSLSPGK
heavy: EVQLVQSGAEVKKPGSSVKVSCKASGYTITDSNIHWVRQAPGQSLEWIGYIYPYNGGTDYNQKFKNRATLTVDNPTNTAYMELSSLRSEDTAFYYCVNGNPWLAYWGQGTLVTVSSASTKGPSVFPLAPSSKSTSGGTAALGCLVKDYFPEPVTVSWNSGALTSGVHTFPAVLQSSGLYSLSSVVTVPSSSLGTQTYICNVNHKPSNTKVDKRVEPKSCDKTHTCPPCPAPEFEGGPSVFLFPPKPKDTLMISRTPEVTCVVVDVSHEDPEVKFNWYVDGVEVHNAKTKPREEQYNSTYRVVSVLTVLHQDWLNGKEYKCKVSNKALPASIEKTISKAKGQPREPQVCTLPPSREEMTKNQVSLSCAVKGFYPSDIAVEWESNGQPENNYKTTPPVLDSDGSFFLVSKLTVDKSRWQQGNVFSCSVMHEALHNRFTQKSLSLSPGK
light: DIQLTQSPSTLSASVGDRVTITCRASESLDNYGIRFLTWFQQKPGKAPKLLMYAASNQGSGVPSRFSGSGSGTEFTLTISSLQPDDFATYYCQQTKEVPWSFGQGTKVEVKRTVAAPSVFIFPPSDEQLKSGTASVVCLLNNFYPREAKVQWKVDNALQSGNSQESVTEQDSKDSTYSLSSTLTLSKADYEKHKVYACEVTHQGLSSPVTKSFNRGEC
Take B3: the flow cytometry signal in experiment [1] was 95600; in experiment [2], 84800; with CD33 on KILR-HL60 cells [3], 621000; with CD33 on KILR-HL60 cells [4], 538000.

B4: CD3 × CD33-BspAb50 (bispecific antibody)
scFv-Fc: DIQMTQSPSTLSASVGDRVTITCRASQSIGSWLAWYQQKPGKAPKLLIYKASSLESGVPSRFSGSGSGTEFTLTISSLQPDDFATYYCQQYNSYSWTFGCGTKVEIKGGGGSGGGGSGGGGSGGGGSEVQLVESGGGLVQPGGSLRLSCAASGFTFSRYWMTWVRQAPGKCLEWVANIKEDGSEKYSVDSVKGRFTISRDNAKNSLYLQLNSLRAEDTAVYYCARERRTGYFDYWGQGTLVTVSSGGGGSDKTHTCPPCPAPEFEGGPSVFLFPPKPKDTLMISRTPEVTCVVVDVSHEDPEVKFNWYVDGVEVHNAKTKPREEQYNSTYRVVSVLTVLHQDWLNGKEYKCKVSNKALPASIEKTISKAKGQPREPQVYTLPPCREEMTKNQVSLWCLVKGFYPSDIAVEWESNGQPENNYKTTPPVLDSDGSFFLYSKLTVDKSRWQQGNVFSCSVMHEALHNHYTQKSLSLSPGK
heavy: EVQLVQSGAEVKKPGSSVKVSCKASGYTITDSNIHWVRQAPGQSLEWIGYIYPYNGGTDYNQKFKNRATLTVDNPTNTAYMELSSLRSEDTAFYYCVNGNPWLAYWGQGTLVTVSSASTKGPSVFPLAPSSKSTSGGTAALGCLVKDYFPEPVTVSWNSGALTSGVHTFPAVLQSSGLYSLSSVVTVPSSSLGTQTYICNVNHKPSNTKVDKRVEPKSCDKTHTCPPCPAPEFEGGPSVFLFPPKPKDTLMISRTPEVTCVVVDVSHEDPEVKFNWYVDGVEVHNAKTKPREEQYNSTYRVVSVLTVLHQDWLNGKEYKCKVSNKALPASIEKTISKAKGQPREPQVCTLPPSREEMTKNQVSLSCAVKGFYPSDIAVEWESNGQPENNYKTTPPVLDSDGSFFLVSKLTVDKSRWQQGNVFSCSVMHEALHNRFTQKSLSLSPGK
light: DIQLTQSPSTLSASVGDRVTITCRASESLDNYGIRFLTWFQQKPGKAPKLLMYAASNQGSGVPSRFSGSGSGTEFTLTISSLQPDDFATYYCQQTKEVPWSFGQGTKVEVKRTVAAPSVFIFPPSDEQLKSGTASVVCLLNNFYPREAKVQWKVDNALQSGNSQESVTEQDSKDSTYSLSSTLTLSKADYEKHKVYACEVTHQGLSSPVTKSFNRGEC
For the molecule B4, the flow cytometry signal is 9700 in experiment [1], 33900 in experiment [2], 475000 with CD33 on KILR-HL60 cells [3] and 465000 in the experiment with CD33 on KILR-HL60 cells [4].

B5: CD3 × CD33-BspAb37 (bispecific antibody)
chain 1: not shown
chain 2: EVQLVQSGAEVKKPGSSVKVSCKASGYTITDSNIHWVRQAPGQSLEWIGYIYPYNGGTDYNQKFKNRATLTVDNPTNTAYMELSSLRSEDTAFYYCVNGNPWLAYWGQGTLVTVSSASTKGPSVFPLAPSSKSTSGGTAALGCLVKDYFPEPVTVSWNSGALTSGVHTFPAVLQSSGLYSLSSVVTVPSSSLGTQTYICNVNHKPSNTKVDKRVEPKSCDKTHTCPPCPAPEFEGGPSVFLFPPKPKDTLMISRTPEVTCVVVDVSHEDPEVKFNWYVDGVEVHNAKTKPREEQYNSTYRVVSVLTVLHQDWLNGKEYKCKVSNKALPASIEKTISKAKGQPREPQVCTLPPSREEMTKNQVSLSCAVKGFYPSDIAVEWESNGQPENNYKTTPPVLDSDGSFFLVSKLTVDKSRWQQGNVFSCSVMHEALHNRFTQKSLSLSPGK
chain 3: DIQLTQSPSTLSASVGDRVTITCRASESLDNYGIRFLTWFQQKPGKAPKLLMYAASNQGSGVPSRFSGSGSGTEFTLTISSLQPDDFATYYCQQTKEVPWSFGQGTKVEVKRTVAAPSVFIFPPSDEQLKSGTASVVCLLNNFYPREAKVQWKVDNALQSGNSQESVTEQDSKDSTYSLSSTLTLSKADYEKHKVYACEVTHQGLSSPVTKSFNRGEC
Take B5: the flow cytometry signal turned out to be 10900 in experiment [1], 32800 in experiment [2], 486000 with CD33 on KILR-HL60 cells [3] and 758000 in the experiment with CD33 on KILR-HL60 cells [4].

The record behind these values is US20260167721A1 (ABLEXIS, published 2026).
